One substance from patent US20020146805 can be followed below.

The subject of this data set is PFEK-protease T-6xHIS zymogen.

PFEK-protease T-6xHIS zymogen, sequence (chain, as listed by the source): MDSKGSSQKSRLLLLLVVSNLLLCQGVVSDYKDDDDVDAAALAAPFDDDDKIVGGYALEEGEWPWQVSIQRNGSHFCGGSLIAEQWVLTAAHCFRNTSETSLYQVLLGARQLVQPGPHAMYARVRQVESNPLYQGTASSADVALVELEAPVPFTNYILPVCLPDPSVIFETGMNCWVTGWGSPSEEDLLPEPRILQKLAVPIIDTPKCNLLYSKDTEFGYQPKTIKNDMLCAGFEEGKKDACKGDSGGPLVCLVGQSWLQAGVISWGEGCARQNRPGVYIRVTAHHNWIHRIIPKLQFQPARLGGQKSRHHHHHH

enterokinase: the “cleavage of the zymogen (SDS-PAGE and anti-FLAG Western blot)” value is “quantitative cleavage of the expressed and purified zymogen to generate the processed and activated protease”.
